According to article PMC10893412, “Genetic and Biochemical Characterization of AXC-2 from Achromobacter ruhlandii” (Pathogens, 2024):

What was measured:
Assay in all cases: purified protein
Conditions in all cases: 25 mM sodium phosphate pH 7.5, 25 °C
[1] = test system: CC1=C(C(=O)O)N2C(=O)[C@@H](NC(=O)[C@H](N)c3ccccc3)[C@H]2SC1
[2] = test system: O=C(Cc1cccs1)N[C@@H]1C(=O)N2C(C(=O)O)=C(/C=C/c3ccc([N+](=O)[O-])cc3[N+](=O)[O-])CS[C@H]12; type: biochemical, Achromobacter ruhlandii
From the text: (§1) UV/Vis spectrophotometric hydrolysis, steady state on AXC-2

[3] = test system: CO/N=C(\C(=O)N[C@@H]1C(=O)N2C(C(=O)[O-])=C(C[N+]3(C)CCCC3)CS[C@H]12)c1csc(N)n1; type: biochemical, Achromobacter ruhlandii
From the text: as §1

[4] = test system: C[C@@H](O)[C@H]1C(=O)N2C(C(=O)O)=C(SCCN=CN)C[C@H]12; type: biochemical, Achromobacter ruhlandii
From the text: as §1

[5] = test system: CC1(C)S[C@@H]2[C@H](NC(=O)Cc3ccccc3)C(=O)N2[C@H]1C(=O)O; type: biochemical, Achromobacter ruhlandii
From the text: as §1

[6] = test system: CC1(C)S[C@@H]2[C@H](NC(=O)[C@H](N)c3ccccc3)C(=O)N2[C@H]1C(=O)O; type: biochemical, Achromobacter ruhlandii
From the text: as §1

[7] = test system: CO/N=C(\C(=O)N[C@@H]1C(=O)N2C(C(=O)O)=C(CSc3nc(=O)c(=O)[nH]n3C)CS[C@H]12)c1csc(N)n1; type: biochemical, Achromobacter ruhlandii
From the text: as §1

[8] = test system: C[C@@H](O)[C@H]1C(=O)N2C(C(=O)O)=C(S[C@@H]3CN[C@H](C(=O)N(C)C)C3)[C@H](C)[C@H]12; type: biochemical, Achromobacter ruhlandii
From the text: as §1

**Q.** For AXC-2 (Achromobacter ruhlandii), which Km [1] is on record?
**A.** Its Km is 74 ± 14 µM.

**Q.** And the kcat [1]?
**A.** Its kcat is 16 s⁻¹.

**Q.** What about the kcat/Km [1] of the same substance?
**A.** The kcat/Km was 220000 M⁻¹ s⁻¹.

**Q.** And the Km [2]?
**A.** Its Km is 202 ± 24 µM.

**Q.** And the kcat [2]?
**A.** The kcat was 40 ± 3 s⁻¹.

**Q.** And the kcat/Km [2]?
**A.** Its kcat/Km is 200000 ± 40000 M⁻¹ s⁻¹.

**Q.** What about the Km [3] of the same substance?
**A.** Its Km is 872 ± 254 µM.

**Q.** And the kcat [3]?
**A.** The kcat was 0.29 ± 0.07 s⁻¹.

**Q.** And the kcat/Km [3]?
**A.** The kcat/Km was 300 ± 100 M⁻¹ s⁻¹.

**Q.** What about the Km [4] of the same substance?
**A.** Its Km is 6.3 ± 0.8 µM.

**Q.** What about the kcat [4] of the same substance?
**A.** The kcat was 0.0364 ± 0.0009 s⁻¹.

**Q.** And the kcat/Km [4]?
**A.** Its kcat/Km is 5800 ± 900 M⁻¹ s⁻¹.

**Q.** And the Km [5]?
**A.** Its Km is 1297 ± 409 µM.

**Q.** What about the kcat [5] of the same substance?
**A.** Its kcat is 125 ± 28 s⁻¹.

**Q.** And the kcat/Km [5]?
**A.** Its kcat/Km is 100000 ± 50000 M⁻¹ s⁻¹.

**Q.** And the Km [6]?
**A.** The Km was 344 ± 14 µM.

**Q.** And the kcat [6]?
**A.** Its kcat is 62 ± 5 s⁻¹.

**Q.** And the kcat/Km [6]?
**A.** The kcat/Km was 180000 ± 20000 M⁻¹ s⁻¹.

**Q.** What about the Km [7] of the same substance?
**A.** The Km was 59 ± 6 µM.

**Q.** What about the kcat [7] of the same substance?
**A.** The kcat was 5.5 ± 0.3 s⁻¹.

**Q.** What about the kcat/Km [7] of the same substance?
**A.** The kcat/Km was 90000 ± 10000 M⁻¹ s⁻¹.

**Q.** And the Km [8]?
**A.** Its Km is 8 ± 1 µM.

**Q.** What about the kcat [8] of the same substance?
**A.** Its kcat is 0.051 ± 0.002 s⁻¹.

**Q.** What about the kcat/Km [8] of the same substance?
**A.** Its kcat/Km is 7000 ± 1000 M⁻¹ s⁻¹.
